Reference: PMC4715599 (Molecular microbiology, 2015)

Biological target: MalFGK2 (Escherichia coli, UniProt P02916+P68183+P68187)
Format: biochemical

Compound	stimulation of MBP-dependent ATPase activity by maltose (transporter reconstituted in nanodiscs)	ATPase activity in the absence of MBP (MalFGK2 in nanodiscs)	basal ATPase activity (in detergent, absence of MBP)
OC[C@H]1O[C@H](O[C@H]2[C@H](O)[C@@H](O)C(O)O[C@@H]2CO)[C@H](O)[C@@H](O)[C@@H]1O (mixture of isomers) [maltose, reference compound]	about 10 fold	–	–
MalFGK2: E. coli maltose ABC transporter complex: MalF, MalG and MalK dimer	–	did not exhibit any detectable ATPase activity	~ 122 nmol/min/mg
